“Also recorded” adds a separate entry of the source.
Experiments:
[1] = target: T1, TDP-43 (Mus musculus, UniProt Q921F2); experiment: TDP-43 in nuclei of renal cells of SOD1-G93A mice (Western blot); assay type: in vivo; set-up: from tissue; host or cells: mouse spinal cord, gluteal muscle, brain, kidney cell nuclei; details: 50 mg/kg tail vein every day, 7 days, vs vehicle group, P<0.05
Protocol: SOD1-G93A mice (Jackson Laboratory, Stock Number: 004435) and C57BL/6J mice aged 9-10 weeks were selected. SOD1-G93A mice were randomly divided into two groups, vehicle group and plasminogen group, and C57BL/6J mice were used as normal control group, with 3 mice in each group. […] No treatment was administered to the normal control mice. The mice were killed after 7 days, and kidney tissues were obtained. The sampled kidney tissue was placed in pre-cooled RPMI-1640 (Sigma-Aldrich) culture medium on ice. After rinsing with PBS, the kidney tissue was cut into small pieces and then incubated with 0.25% trypsin for digestion at 37° C. for 10 min, shaking every 2 min. Digestion was terminated by adding DMEM medium containing 10% fetal newborn calf serum. After centrifugation (1500 rpm, 5 minutes), the supernatant was removed to obtain a single cell pellet. […] The precipitate is the cell nucleus. […] The extracted nuclear protein was tested by western blot for TDP-43.

[2] = Brain tissue plasminogen level in MPTP Parkinson's model mice (ELISA); assay type: in vivo, mouse; details: 50 mg/kg tail vein
[3] = target: T1, TDP-43; experiment: TDP-43 in spinal cord tissue of SOD1-G93A mice after plasminogen (Western blot); assay type: in vivo; set-up: from tissue; host or cells: mouse spinal cord, gluteal muscle, brain, kidney cell nuclei; details: 50 mg/kg tail vein, 24 hours after administration, vs vehicle group, P<0.05
Protocol: Six SOD1-G93A mice aged 10-15 weeks were randomly divided into two groups: 3 mice in vehicle control group, and 3 mice in plasminogen group. The vehicle control group mice were injected with the vehicle at 5 ml/kg by tail vein, and the plasminogen group mice were injected with plasminogen (10 mg/ml) at 50 mg/kg body weight by tail vein. The mice were killed 24 hours after administration, and the spinal cords were obtained. After homogenization, TDP-43 was detected by western blot.

[4] = tested on: NSC34 cells; experiment: Human plasminogen level in cytoplasm and nucleus of okadaic acid-treated NSC34 cells (ELISA); details: plasminogen 0.5 mg/mL 24 hours, vs vehicle group
Protocol: The cells were placed in a carbon dioxide incubator for culture at 37.0° C. and 5% CO2. […] After adding plasminogen for 24 hours, the cells were harvested. […] The supernatant is the extracted cytoplasmic protein, and the supernatant is immediately sucked up into a pre-cooled sample tube for later use. The precipitate is the cell nucleus, and the remaining supernatant was completely aspirated (to avoid contamination by cytoplasmic proteins), then adding 50-100 μL of nuclear protein extraction reagent. The precipitate is completely dispersed by pipette blow or high-speed vortex for 15 seconds (can be extended appropriately), then ice-bathing for 10 minutes, vortexing vigorously at maximum speed for 10 seconds and centrifuging at 12,000-16,000 g for 10 minutes at 4° C. The supernatant was immediately sucked up by pipette into a pre-cooled sample tube; this is the extracted nuclear protein.

[5] = target: T1, TDP-43; experiment: Immunofluorescence co-localization staining of plasminogen and TDP-43 in gluteal muscle tissue of SOD1-G93A mice; assay type: in vivo; set-up: from tissue; host or cells: mouse spinal cord, gluteal muscle, brain, kidney cell nuclei; details: 1 mg/mouse tail vein every day
Protocol: Five wild-type male mice and nine male SOD1-G93A mice of similar week-age were selected. Wild-type mice served as the blank control group, and SOD1-G93A mice were observed and recorded from the time of hind leg tremor when they became ill at week 14, and the onset time of each mouse was recorded. Administering to mice 14 days after the onset of the disease. All mice were randomly divided into a vehicle group and a plasminogen administration group according to the onset of the disease: 5 mice in the vehicle group, which were injected with 0.1 ml of vehicle (sodium citrate buffer)/mouse by tail vein every day; 4 mice in the plasminogen administration group, which were injected with 1 mg of plasminogen/0.1 ml of vehicle/mouse by tail vein every day. The vehicle and plasminogen were administered continuously under SPF environment, and the samples were collected at the near-death stage. The longest administration was 61 days. The gluteal muscle tissue collected was fixed in formalin fixative solution. The fixed tissues were dehydrated with gradient alcohol and transparentized with xylene before being embedded in paraffin. The thickness of tissue sections was 3 μm, and the sections were dewaxed and rehydrated and then washed once. The sections were immersed in antigen retrieval working solution (0.01 M sodium citrate buffer) to perform microwave retrieval: preheating for 5 minutes, high heating for 2 minutes, and low heating for 15 minutes. […] The green fluorescence color development of the corresponding anti-plasminogen secondary antibody was performed according to the instructions of the XTSA520 IHC kit (Alpha X Biotech, AXT6202500), washing 3 times with PBS for 5 minutes each time. […] The red fluorescence color development of the corresponding anti-TDP-43 secondary antibody was performed according to the instructions of the XTSA620 IHC kit (Alpha X Biotech, AXT6502500), washing 3 times with PBS for 5 minutes each time. […]

T1 sequence (Q921F2 whole entry): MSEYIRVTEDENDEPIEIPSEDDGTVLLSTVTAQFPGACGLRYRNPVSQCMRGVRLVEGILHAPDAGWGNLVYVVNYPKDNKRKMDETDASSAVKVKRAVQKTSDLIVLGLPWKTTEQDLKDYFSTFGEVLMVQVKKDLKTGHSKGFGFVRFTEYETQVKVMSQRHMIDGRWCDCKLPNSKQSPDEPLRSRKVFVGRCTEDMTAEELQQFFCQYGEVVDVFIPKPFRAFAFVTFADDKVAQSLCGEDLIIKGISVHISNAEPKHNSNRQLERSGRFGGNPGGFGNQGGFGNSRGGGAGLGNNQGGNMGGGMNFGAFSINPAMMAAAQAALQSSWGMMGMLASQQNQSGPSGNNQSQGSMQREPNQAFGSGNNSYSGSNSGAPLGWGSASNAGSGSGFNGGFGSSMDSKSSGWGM

B1: plasminogen: human plasminogen purified from human donor plasma, in which human Lys-plasminogen and Glu-plasminogen are >98% (protein)
chain: KVYLSECKTGNGKNYRGTMSKTKNGITCQKWSSTSPHRPRFSPATHPSEGLEENYCRNPDNDPQGPWCYTTDPEKRYDYCDILECEEECMHCSGENYDGKISKTMSGLECQAWDSQSPHAHGYIPSKFPNKNLKKNYCRNPDRELRPWCFTTDPNKRWELCDIPRCTTPPPSSGPTYQCLKGTGENYRGNVAVTVSGHTCQHWSAQTPHTHNRTPENFPCKNLDENYCRNPDGKRAPWCHTTNSQVRWEYCKIPSCDSSPVSTEQLAPTAPPELTPVVQDCYHGDGQSYRGTSSTTTTGKKCQSWSSMTPHRHQKTPENYPNAGLTMNYCRNPDADKGPWCFTTDPSVRWEYCNLKKCSGTEASVVAPPPVVLLPDVETPSEEDCMFGNGKGYRGKRATTVTGTPCQDWAAQEPHRHSIFTPETNPRAGLEKNYCRNPDGDVGGPWCYTTNPRKLYDYCDVPQCAAPSFDCGKPQVEPKKCPGRVVGGCVAHPHSWPWQVSLRTRFGMHFCGGTLISPEWVLTAAHCLEKSPRPSSYKVILGAHQEVNLEPHVQEIEVSRLFLEPTRKDIALLKLSSPAVITDKVIPACLPSPNYVVADRTECFITGWGETQGTFGAGLLKEAQLPVIENKVCNRYEFLNGRVQSTELCAGHLAGGTDSCQGDSGGPLVCFEKDKYILQGVTSWGLGCARPNKPGVYVRVSRFVTWIEGVMRNN
level of TDP-43 in renal cell nuclei [1]: significantly lower
time within which plasminogen is almost completely metabolized (brain tissue) [2]: 12 to 24 h
plasminogen level in the brain tissue ([2]; vs vehicle group): significantly higher
amount of TDP-43 monomer in spinal cord tissue [3]: significantly lower
level of human plasminogen in the cytoplasm [4]: significantly higher
level of human plasminogen in the nucleus [4]: significantly higher
co-localization of plasminogen with TDP-43 in muscle tissue (cytoplasm and nucleus) [5]: co-localizes with TDP-43
subcellular presence of plasminogen in muscle tissue [5]: present in the cytoplasm (as indicated by Δ) and in the nucleus; also recorded: present in the cytoplasm (as indicated by Δ) and the nucleus
positive staining of plasminogen in muscle tissue ([5]; up to 61 days, vs vehicle group): significantly more

Reference: patent US20260166131A1, “METHOD FOR PROMOTING PATHOLOGICAL TDP-43 PROTEIN DEGRADATION, AND DRUG” (TALENGEN INTERNATIONAL LIMITED, priority 2022, published 2026)
